# Results published in PMC9443943.
# Legend:
# [1] = sucrose gradient sEV fractions from SNU449, Strep immunoblot; details: glycan lost; control: TM4SF5-WT
# [2] = immunoblot of sEVs from transfected Huh7 cells; details: glycan lost; control: TM4SF5-Strep WT
Protein,localisation_or_trafficking [1],localisation_or_trafficking [2]
"Transmembrane 4 L six family member 5 (TM4SF5): N138A/N155Q, Gly− (protein) parent chain: MCTGKCARCVGLSLITLCLVCIVANALLLVPNGETSWTNTNHLSLQVWLMGGFIGGGLMVLCPGIAAVRAGGKGCCGAGCCGNRCRMLRSVFSSAFGVLGAIYCLSVSGAGLRNGPRCLMNGEWGYHFEDTAGAYLLNRTLWDRCEAPPRVVPWNVTLFSLLVAASCLEIVLCGIQLVNATIGVFCGDCRKKQDTPH",abolishes,abolishes
Transmembrane 4 L six family member 5 (TM4SF5): N155Q (protein) parent chain: MCTGKCARCVGLSLITLCLVCIVANALLLVPNGETSWTNTNHLSLQVWLMGGFIGGGLMVLCPGIAAVRAGGKGCCGAGCCGNRCRMLRSVFSSAFGVLGAIYCLSVSGAGLRNGPRCLMNGEWGYHFEDTAGAYLLNRTLWDRCEAPPRVVPWNVTLFSLLVAASCLEIVLCGIQLVNATIGVFCGDCRKKQDTPH,–,no change
Transmembrane 4 L six family member 5 (TM4SF5): N138A (protein) parent chain: MCTGKCARCVGLSLITLCLVCIVANALLLVPNGETSWTNTNHLSLQVWLMGGFIGGGLMVLCPGIAAVRAGGKGCCGAGCCGNRCRMLRSVFSSAFGVLGAIYCLSVSGAGLRNGPRCLMNGEWGYHFEDTAGAYLLNRTLWDRCEAPPRVVPWNVTLFSLLVAASCLEIVLCGIQLVNATIGVFCGDCRKKQDTPH,–,decreases
